Laboratory results: publication PMC10687048

Target: Chikungunya virus (CHIKV) nonstructural protein 1 (nsP1) H37A mutant (chikungunya virus)
Test: cryo-EM structure; nsP1-mut incubated with SAH and m7GpppAmU at 4 °C overnight; graphene-covered grids; refinement with C12 symmetry, 2.41 Å

## Chikungunya virus (CHIKV) nonstructural protein 1 (nsP1) H37A mutant (enzyme)
  stoichiometry N: 12
